Tests used:
[1] = target: the molecule itself; experiment: SAXS; Fpr4Δloop, 1.0-4.0 mg/mL, 50 mM Hepes pH 7.5, 100 mM NaCl, 11 °C, beamline X33 (EMBL/DESY Hamburg); P5 symmetry
[2] = target: the molecule itself; experiment: SAXS; HD2 NPL 1.0-5.0 mg/mL and FKBP39 NPL 1.0-20.0 mg/mL, 50 mM Hepes pH 7.5, 100 mM NaCl, 11 °C, ESRF BioSAXS beamline ID14eh3; FKBP39 modelled with P5, HD2 with P25 symmetry
[3] = target: the molecule itself; experiment: SEC; S200 or S75 120-mL column in 20 mM Tris-HCl pH 8.0, 150 mM (salt not given), 2 mM β-mercaptoethanol; apparent molecular weight
[4] = target: the molecule itself; experiment: SANS; deuterated FKBP39 NPL, 2.0-10.0 mg/mL, 20 mM 4-morpholineethanesulfonic acid pH 6.0, 25 mM NaCl, 20 °C; bead model fitted with 5-fold symmetry

B1: Fpr4 NPLΔloop (S. cerevisiae Fpr4 amino acids 1-168 with the β4-β5 loop deleted) (domain or fragment, Saccharomyces cerevisiae, UniProt Q06205 1-168, looked up)
chain: MSDMLPLATYSLNVEPYSPTPALNFKIPVTIRITMAAIDPEPFDDDKKPSTLRIIKRNEIDDEFEECVLLTLSPKGQYQQALDITIAPEEDVQFVVTGSYTISLTGNYVKHPF
notes: Fpr4, Saccharomyces cerevisiae, amino acids 1-58 joined to 114-168 by overlap deletion PCR; The construct contains a C-terminal unstructured tail seen in the SAXS model; also called Fpr4Δloop; Fpr4 NPL domain; source: E. coli BL21 (DE3), purified
stoichiometry N [1]: 5

B2: Arabidopsis thaliana type 2 histone deacetylase HD2 NPL domain (HD2a, amino acids 1-112) (domain or fragment, UniProt Q56WH4 1-112, looked up)
chain: MEFWGVAVTPKNATKVTPEEDSLVHISQASLDCTVKSGESVVLSVTVGGAKLVIGTLSQDKFPQISFDLVFDKEFELSHSGTKANVHFIGYKSPNIEQDDFTSSDDEDVPEA
notes: type 2 histone deacetylase (printed as HD2a), Arabidopsis thaliana, amino acids 1-112; also called Arabidopsis NPL construct; A thali; source: E. coli BL21 (DE3), purified; copies: 10
stoichiometry N [2]: 10

B3: FKBP39 NPL domain (N-terminal nucleoplasmin-like domain of Drosophila FKBP39, residues 1-92) (domain or fragment, Drosophila melanogaster)
chain: QGAMAMFWGLNMKPERKYSQTIIKSFHISGVALDKGQEAKLYLAAEKQEYIVATVTKAIPQVALDLNFSKGDRIMFYTAGDASVSLLGYLHDIDSGS
notes: 3-4 additional amino acids left at the N-terminus after chymotrypsin cleavage, printed as [F]QGA: with or without the leading F; second amino acid changed from Ser to Ala for the NcoI cloning site; dipeptide from the BamHI site at the C-terminus; Deuterated or otherwise isotope-labelled samples were used for SANS and NMR; The structure was deposited at the PDB; also called N-terminal domain of …
stoichiometry N [3]: ~5 | stoichiometry N [4]: 5
